{
  "source": "patent US20130324477",
  "proteins": {"B1": {"name": "recombinant 28 kDa SASPase (SASPase-28), positions 85 to 343 of Q53RT3 (protein)", "chain": "MAGSGARSEEGRRQHAFVPEPFDGANVVPNLWLHSFEVINDLNHWDHITKLRFLKESLRGEALGVYNRLSPQDQGDYGTVKEALLKAFGVPGAAPSHLPKEIVFANSMGKGYYLKGKIGKVPVRFLVDSGAQVSVVHPNLWEEVTDGDLDTLQPFENVVKVANGAEMKILGVWDTAVSLGKLKLKAQFLVANASAEEAIIGTDVLQDHNAILDFEHRTCTLKGKKFRLLPVGGSLEDEFDLELIEEDPSSEEGRQELSH"}},
  "biological_target": "T1, recombinant filaggrin-2 (FLG2), positions 2 to 213 of Q5D862, fused to a Thioredoxin-His-S.Tag affinity label, Q5D862",
  "T1 chain": "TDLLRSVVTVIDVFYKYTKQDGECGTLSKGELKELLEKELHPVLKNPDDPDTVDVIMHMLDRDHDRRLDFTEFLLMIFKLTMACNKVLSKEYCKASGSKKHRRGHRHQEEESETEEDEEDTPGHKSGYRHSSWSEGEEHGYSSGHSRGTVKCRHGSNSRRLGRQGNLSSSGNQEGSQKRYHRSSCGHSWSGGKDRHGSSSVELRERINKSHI",
  "data": [
    {"protein": "B1", "values": [
      {"measurement": "enzymatic activity of SASPase (hydrolysis of Dabcyl-QIDRIMEK-Edans, EDANS fluorescence at 340/490 nm)", "result": "the enzymatic activity of SASPase is significantly increased in the presence of an increasing concentration of FLG2-Hs"}
    ]}
  ]
}
